From patent CN113234158A (FUZHOU MAIXIN BIOTECHNOLOGY DEV CO LTD, dated 2021) come the findings set out here.

The target of this assay is T1, TIM3蛋白 (T细胞免疫球蛋白黏液素3) (human, UniProt Q8TDQ0 22-301).
T1 construct: whole, on cells; Endogenous TIM3 in paraffin tissue sections (immunohistochemistry); Species 'human' comes from the abstract; also called T cell immunoglobulin and mucin-3
T1 sequence (looked up): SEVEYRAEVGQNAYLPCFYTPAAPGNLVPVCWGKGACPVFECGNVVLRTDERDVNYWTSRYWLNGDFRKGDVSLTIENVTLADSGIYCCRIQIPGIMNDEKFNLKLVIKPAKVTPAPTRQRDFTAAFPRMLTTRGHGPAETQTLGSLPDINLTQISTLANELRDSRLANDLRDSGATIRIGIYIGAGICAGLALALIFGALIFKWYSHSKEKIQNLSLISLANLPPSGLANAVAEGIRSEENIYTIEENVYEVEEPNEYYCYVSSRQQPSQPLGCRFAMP
Put plainly: immunohistochemistry on tonsil and appendix tissue chips.

B1: 抗TIM3蛋白单克隆抗体 (小鼠杂交瘤细胞株7H2分泌, CGMCC NO 20763) (antibody, V domains shown)
VH: QVQLQESGGDLVKTGGSLKLSCVASGFTFRRYTMSWVRQTPAKRLEWVATIGSGGGDTYYPDTVKGRFTISRDNARSTLFLQMNSLRSEDTARYYCARSSYYYDVDLYYYSMDYWGQGTSVTVSS
VL: DILMTQTPLSLSASLGDRVTISCRASQDIRNCLNWYQQKPDGTVKLLIYYTSTLQSGVPSRFSGSGSGTDYSLTISNLEAEDIATYTCQQYSKIPRTFGGGTTLEIK
notes: also called TIM3(7H2); 本抗体
B1: the binding result was “binds”.
